Assays:
[1] = substrate: C[C@@H]1O[C@@H](O[C@@H]2[C@@H](O)[C@H](OCCc3ccc(O)c(O)c3)O[C@H](CO)[C@H]2OC(=O)/C=C/c2ccc(O)c(O)c2)[C@H](O)[C@H](O)[C@H]1O; test: uptake into vacuolar membrane vesicles, HPLC, Lineweaver-Burk; assay type: biochemical, Rehmannia glutinosa; details: vesicles from transfected N. benthamiana protoplasts, 25 mM Tris-MES pH 8.0, 0.4 M sorbitol, 0.1% BSA, 25 °C, 20 min, substrate 20–120 μM
[2] = substrate: C[C@@H]1O[C@@H](O[C@@H]2[C@@H](O)[C@H](OCCc3ccc(O)c(O)c3)O[C@H](COC(=O)/C=C/c3ccc(O)c(O)c3)[C@H]2O)[C@H](O)[C@H](O)[C@H]1O; test: as above; assay type: biochemical, Rehmannia glutinosa; details: vesicles from transfected N. benthamiana protoplasts, 25 mM Tris-MES pH 8.0, 0.4 M sorbitol, 0.1% BSA, 25 °C, 20 min, substrate 20–120 μM

B1: RgMATE6 (Rehmannia glutinosa) (protein)
chain: MEDNSKQPLLSYEEEEEEDQVPDLVSVPSRFSFQRLSNFSFFSSFVADDEDIAPIETFSEFMSAFKDESGKLWFLAGPAIFTSLCQYSLGAFTQTFAGHVGTLELAAFSSVIAGLSLGVMLGMGSAVETLCGQAFGAGQHDMLGIYLQRSWIILLATGFILMFLYIFALPFLLVIGQTESISRVAGKLALWMIPQLFAYALNFPTAKFLQAQSKIMAMAWISAAGLGLHVLFSWLLMLKLGWGMAGGAAVLDGSWWFIVIAQLIYIFSGTCGKAWPGFSLRAFSNLWGFVRLSVASAVMMCLETWYFMALVLFAGYLKDAEVAVAALSVCTNILGWTNTIAVGFNAAISVRVSNELGASRPRTAKFSVVVMVISAFLIGLIVSILLLIFQDQYPSLFSDSLDVKQVVYELTPLLAFSIVVNSIQPALSGVAIGAGWQALIAYVNIVCYYVFGVPLGLILGYPLNMGVKGIWYGMVAGTVLQTLILFWIVYRTDWNKEASIAAKRIKYWRGEAEAAKSKGLGEIK
notes: full-length ORF (524 residues, 12 TM helices), C-terminal GFP fusion (pBI121-RgMATE6-GFP), transiently expressed in Nicotiana benthamiana mesophyll protoplasts; vacuolar membrane vesicles
Km [1]: 35.59 µM | Km [2]: 121.98 µM
